Target: T1, AspN-treated GDF11 (human, UniProt O95390 60-114; O95390 122-407, N-linked glycan at Asn-94, biotinylated through the glycan (Octet))
T1 construct: Full length GDF11 (ACE378) cleaved with endoproteinase AspN only; Glycopeptide 60-114 stays non-covalently associated with fragment 122-407, about 100 kDa by SEC; Minor fragments 60-117, 128-407, 133-407 and 25-114/117 were also detected; also called AspN digested GDF11; GDF11 Asp-N biotin sample
T1 sequence (peptide): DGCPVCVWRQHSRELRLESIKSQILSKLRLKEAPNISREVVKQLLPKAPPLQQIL
T1 sequence: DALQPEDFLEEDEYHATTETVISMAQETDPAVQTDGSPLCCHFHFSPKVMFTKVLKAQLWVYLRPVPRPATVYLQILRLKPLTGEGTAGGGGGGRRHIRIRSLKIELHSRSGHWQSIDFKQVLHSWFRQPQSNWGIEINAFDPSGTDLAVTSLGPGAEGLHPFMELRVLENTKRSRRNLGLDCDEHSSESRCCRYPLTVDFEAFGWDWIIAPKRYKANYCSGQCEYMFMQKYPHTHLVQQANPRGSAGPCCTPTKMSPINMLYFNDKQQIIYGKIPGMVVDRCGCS
Test: Octet, biotinylated GDF11 sample captured on Streptavidin sensor, receptor-Fc in solution
Method: Following this treatment, GDF11 peptide 60-112/114 was in the supernatant and the rest of the protein precipitated and was in the pellet fraction. The specificity of labeling of GDF11 with biotin hydrazide was confirmed by Western blotting using Streptavidin Horseradish peroxidase for detection. Only full length GDF11 and glycopeptide 60-114 were detected and not the major fragments 122-407 or 299-407. Octet Binding Studies. Binding characteristics of the biotinylated samples were evaluated by Octet on an Octet RED System (FortéBio™, Menlo Park, Calif.) using Dip and Read™ Streptavidin (SA) Biosensors (FortéBio™). Samples were prepared in 5 mM NaH₂PO₄ pH 6.0, 150 mM NaCl, 0.005% Tween-20. […] The ability of biotinylated AspN/furin GDF11 to bind Type I and II receptors was also assessed by Octet using the same loading conditions, followed by treatment of the receptors at 10 μg/mL. […] The tips were washed for 1 min and dissociation monitored for 30 min in the presence of 20 μM free biotin. For secondary binding studies with the receptors, the tips were loaded with biotinylated GDF11 and controls, and washed as described above, then the receptor samples were loaded for 15 min and dissociation monitored for 5 min.
The binding characteristics of the GDF11 peptide 60-112/114 for mature GDF11 residues 299-407 and for AspN fragment residues 122-407 were assessed using an Octet Red system. […]

B1: Recombinant Human Activin RIB (ALK-4)-Fc chimeric protein (Fc fusion, UniProt P36896 24-126, looked up)
chain: SGPRGVQALLCACTSCLQANYTCETDGACMVSIFNLDGMEHHVRTCIPKVELVPAGKPFYCLSSEDLRNTHCCYTDYCNRIDLRVPSGHLKEPEHPSMWGPVE
notes: Bought from R&D systems; also called Activin RIB-Fc; Type I receptor; Fc part of the bought chimera not given
- binding result: no binding

Source: patent publication US20220348623A1 (Biogen, published 2022)
